Measured values as given in the nanobody polyreactivity screen of Harvey et al. (2022).

Test: yeast display, Sf9 membrane polyspecificity reagent, FACS + sequencing; frameworks hold sequencing errors
Outline: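 Genes from sorted yeast were amplified by colony PCR, read by MiSeq 2 × 250 sequencing and filtered on CDR length. These cells carried a synthetic nanobody library in Saccharomyces cerevisiae BJ5465 and were sorted by FACS into low and high (top ~1%) gates on anti-HA and streptavidin fluorescence. Polyreactivity is labelled according to the gate of origin.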

Row | Sequence | polyreactivity (PSR sort gate)
1 | QVQLVESGGGLVQAGGSLRLSCAASGRTFTEYAMGWYRQAPGKERELVARISIGDSTYYADSVKGRFTISRDNAKNTVYLQMNSLKPEDTAVYYCNAEYSRSYRYDECYWGQGTQVTVSS | low polyreactivity
2 | QVQLVESGGGLVQAGGSLRLSCAASGRTFTEYAMGWYRQAPGKERELVARISIGDSTYYADSVKGRFTISRDNAKNTVYLQMNSLKPEDTAVYYCNAEYSRSYRYDEGYWGQGTQVTVSS | low polyreactivity
3 | QVQLVESGGGLVQAGGSLRLSCAASGRTFTFNAMGWYRQAPGKERELVAAITRSGGRTYYADSVKGRFTISRDNAKNTVYLQMNSLKPEDTAVYYCAAEWEYSWYDYDYWGQGTQVTVSS | high polyreactivity
4 | QVQLVESGGGLVQAGGSLRLSCAASGRTFTFNSMGGYRQAPGKERELFSRIDWRGITYADSVKGRFTISRDNAKYTVYLQMNSLKPEVTAVYYCSATFIQVVVNVQLYDYDYWGQGTQVTVSS | low polyreactivity
5 | QVQLVESGGGLVQAGGSLRLSCAASGRTFTFNTMGWYRQAPGKERELVAAITISDGRTYYADSVKGRFTISRDNAKNTVYLQMNSLKREVTAVYYCAAVQKYGYYWRHNDYWGQGTQVTVSS | low polyreactivity
6 | QVQLVESGGGLVQAGGSLRLSCAASGRTFTFYAMGWYRQAPGKERELVAAISTRGGRTYYADSVKGRFTISRDNAKNTVYFQMNSLKPDDTAVYYCASRARRRYYYWGQGTQVTVSS | high polyreactivity
7 | QVQLVESGGGLVQAGGSLRLSCAASGRTFTGNTMGWYRQAPGKERELVAAITKRGGSTYYADSVKGRFTISRDNAKNTVYLQMNSLKPEDTAVYYCAATSGVYRVGIIKYDYWGQGTQVTVSS | high polyreactivity
8 | QVQLVESGGGLVQAGGSLRLSCAASGRTFTGYAMGWDRQAPGKERELVAGISYRGGSTYYADSVKGRFTISRDNAKNTVYLQMNSLKQEVTAVYYCARDYSRHKGDYWGQGTQVTVSS | low polyreactivity
9 | QVQLVESGGGLVQAGGSLRLSCAASGRTFTGYAMGWYRQAPGKERELVAAISQGSGSTYYADSVKGRFTISRDNAKNTVYLQMNSLKPEDTAVYYCAAERAYYQTGHYYWGQGTQVTVSS | high polyreactivity
10 | QVQLVESGGGLVQAGGSLRLSCAASGRTFTGYAMGWYRQAPGKERELVASISGSGGRTNYADSVKGRFTISRDNAKNTVYLQMNSLKPEDTAVYYCAARYRTWFGYWGQGTQVTVSS | high polyreactivity
11 | QVQLVESGGGLVQAGGSLRLSCAASGRTFTHNVMGRYRQAPGKERELVAGISSTGGSTYYADSVKGRFTISRDNAKNTVYLQMNSLKPEDTAVYYCAVIGYHYSAISPPSQTRQGYDYWGQGTQVTVSS | low polyreactivity
12 | QVQLVESGGGLVQAGGSLRLSCAASGRTFTHNVMGWYRQAPGKERELVAGISSTGGSTYYADSVKGRFTISRDNAKNTVYLQMNSLKPEDTAVYYCAVIGYHYSAISPPSQTRQGYDYWGQGTQVTVSS | low polyreactivity
13 | QVQLVESGGGLVQAGGSLRLSCAASGRTFTHYAMGWYRQAPGKERELVAVITTGGSTYYADSVKGRFTISRDNAKNTVYLQMNSLKPEDTAVYYCAATALSGLGYWGQGTQVTVSS | low polyreactivity
14 | QVQLVESGGGLVQAGGSLRLSCAASGRTFTIYAMGSYRQAPGKERELVAAITRSGGGTYYADSVKGRFTISRDNAKNTVYFQMKSLKPEDTAVYYCARDKHWFYGVIGPEDYWGQGTQVTVSS | low polyreactivity
15 | QVQLVESGGGLVQAGGSLRLSCAASGRTFTIYAMGWYRQAPGKEREFVAGITTGGSSTYYADSVKGRFTISRDNAKNTVYLQMNILKPEDTAVYYCAAVSYAWYDYWGQGTHVTVSS | low polyreactivity
16 | QVQLVESGGGLVQAGGSLRLSCAASGRTFTKYAMGWYIQAPGKERELVASISTRGGSTYYADSVKGRFTISRDNAKNTVYLQMNSLKPEDTAVYYCNKGFRHRAPSSTPYDYWGQGTQVTVSS | high polyreactivity
17 | QVQLVESGGGLVQAGGSLRLSCAASGRTFTKYAMGWYRQAPGKERELVATIRGRGGSTYYADSVKGRFTISRDNAKYTVYLQMNSLKPEDTAVYYCAADYWFSSRKYDYWGQGTQVTVSS | high polyreactivity
18 | QVQLVESGGGLVQAGGSLRLSCAASGRTFTLNAMGWYRQAPGKERELVAAISGDTGSTYYADSVKGRFTISRDNAKNTVFLQMNSLKPEDTAVYYCATRHAGTWYYWFERYYWGQGTQVTVSS | high polyreactivity
19 | QVQLVESGGGLVQAGGSLRLSCAASGRTFTPNAMGWYRQAPGKERELVAAITSTGGRTYYADSVKGRFTISRDNAKNTVYLQMNSLKPEDTAVYYCAVSYRYLRKYGYWGQGTQVTVSS | high polyreactivity
20 | QVQLVESGGGLVQAGGSLRLSCAASGRTFTPNAMGWYRQAPGKERELVASIRRGTSTYYADSVKGRFTISRDNAKNTVYLQMNSLKPEDTAVYYCAARPFVPRVGTYSYYWGQGTQVTVSS | high polyreactivity
21 | QVQLVESGGGLVQAGGSLRLSCAASGRTFTPYDMGWYRPAPGKERELVAAITWRGGSTYYADSVKGRFTISRDNAKNTVYLQMNSLKPEDTAVYYCAKDRWTYAFRVGYGYWGQGTQVTVSS | high polyreactivity
22 | QVQLVESGGGLVQAGGSLRLSCAASGRTFTRNAMGWYRQAPGKERELVAAITGRGGSTYYADSVKGRFTISRDNAKNTVYLQMNSLKPEDTAVYYCARFYRYSRDYWGQGTQVTVSS | high polyreactivity

Row | Sequence | polyreactivity (PSR sort gate)
23 | QVQLVESGGGLVQAGGSLRLSCAASGRTFTRNAMGWYRQAPGKERELVAAITRGASTYYADSVKGRFTISRDNAKNTVYLQMNSLKPEDTAVYYCAVSQYRGIYRKYDYWGQGTQVTVSS | high polyreactivity
24 | QVQLVESGGGLVQAGGSLRLSCAASGRTFTRYAMGWYRQAPGKERELVAAISRGGGGTYYADSVKGRFTISRDNAKNTVYLQMNSLKPEDTAVYYCAADGDRSAQRYTGYYYWGQGTQVTVSS | high polyreactivity
25 | QVQLVESGGGLVQAGGSLRLSCAASGRTFTRYAMGWYRQAPGKERELVAAISRRGGRTFYADSVKGRFTISRDNAKNTVYLQMNSLKPEDTAVYYCAADYKSSPPLPEYDYWGQGTQVTVSS | high polyreactivity
26 | QVQLVESGGGLVQAGGSLRLSCAASGRTFTRYAMGWYRQAPGKERELVAAISYIGGRTNYADSVKGRFTISRDNAKNTVYLQMNSLKPEDTAVYYCAASRPWVYYDGLDYWGQGTQVTVSS | high polyreactivity
27 | QVQLVESGGGLVQAGGSLRLSCAASGRTFTRYAMGWYRQAPGKERELVAAITSDGTTYYADSVKGRFTISRDNAKNTVYLQMNSLKPEDTAVYYCNAQYKFPDLGGYDYWGQGTQVTVSS | high polyreactivity
28 | QVQLVESGGGLVQAGGSLRLSCAASGRTFTRYAMGWYRQAPGKERELVAAITSSGRTYYADSVKGRFTISRDNAKNTVYLQMNSLKPEDTAVYYCAARGVYVKYYYWGQGTQVTVSS | high polyreactivity
29 | QVQLVESGGGLVQAGGSLRLSCAASGRTFTRYAMGWYRQAPGKERELVATITRGGSTNYADSVKGRFTISRDNAKNTVYLQMNSLKPEDTAVYYCAAGYFIRTRSRYRYDYWGQGTQVTVSS | high polyreactivity
30 | QVQLVESGGGLVQAGGSLRLSCAASGRTFTRYAMGWYRQAPGKERELVATITRGGSTNYADSVKGRFTISRDNSKNTVYLQMNSLKPEDTAVYYCAAGYFIRTRSRYRYDYWGQGTQVTVSS | high polyreactivity
31 | QVQLVESGGGLVQAGGSLRLSCAASGRTFTSNAMGWYRQAPGKERELVAAISNRGTRTYYADSVKGRFTISRDNAKNTVYLQMNSLKPEDTAVYYCAARVSTVFKRYYYWGQGTQVTVSS | high polyreactivity
32 | QVQLVESGGGLVQAGGSLRLSCAASGRTFTSNAMGWYRQAPGKERELVAAITRGGSTYYADSVKGRFTISRDNAKITVYLQMNSLKPEDTAVYYCAAAYGGRLRYTAGYYWGQGTQVTVSS | high polyreactivity
33 | QVQLVESGGGLVQAGGSLRLSCAASGRTFTSYAMGWYRQEHGKERELVAGISSGGSTNYADSVKGRFTLSRDNAKNTVYLQMNSLKPEDTAVYYWAAGFSPGSYDAPTLAFEYWGQGTQVTVSS | low polyreactivity
34 | QVQLVESGGGLVQAGGSLRLSCAASGRTFTTNAMGWYRQAPGKERELVAAITIGDDTYYADSVKGRFTISRDNAKNTVYLQMNSLKPEDTEVYYCSADYKRVPFVTQYVSKDGYWGHGTQVTVSS | low polyreactivity
35 | QVQLVESGGGLVQAGGSLRLSCAASGRTFTTYAMGWYRQAPGKERELVAAISGSGGSTYYADSVKGRFTISRDNAKNTVYLQMNSLKPEDTAVYYCATAYYYHGGYYYPYDDDWGQGTQVTVSS | low polyreactivity
36 | QVQLVESGGGLVQAGGSLRLSCAASGRTFTVYAMGWYRQAPGKERELVAAISSGGITYYADSVKGRFTISRDNAKNTVYLQMNSLKPEDTAVYYCNTKSGKARYVFGYWGQGTQVTVSS | low polyreactivity
37 | QVQLVESGGGLVQAGGSLRLSCAASGRTFVANTMGWYRQAPGKEREFVAGISRRGGSTYYADSVKGRYTISRDNAKNTVYLQMNSLKPEDPAVYYCAVGTWARYRGLEYDYWGQGTQVTVSS | high polyreactivity
38 | QVQLVESGGGLVQAGGSLRLSCAASGRTFVDSVMGWYRQAPGKERELVAAISRSGSTYYADSVKGRFTISRDNAKNTVYLQMNSLKPEDTAVYYCAADWSFNRSSGQYGFYYWGQGTQVTVSS | low polyreactivity
39 | QVQLVESGGGLVQAGGSLRLSCAASGRTFVDYAMGWYRQAPGKERELVAAISSSGASTYYADSVKGRFTISRDNAKNTVYLQMNSLKPEDTAVYYCAARRHRTYGYWGQGTQVTVSS | high polyreactivity
40 | QVQLVESGGGLVQAGGSLRLSCAASGRTFVEYAMGWYRQAPGKERELVAAITYSGDDTYYADSVKGRFTISRDNAKNTVYLQMNSLKPEDTAVYYCAKKRSKPISFDYWGQGTQVTVSS | high polyreactivity
41 | QVQLVESGGGLVQAGGSLRLSCAASGRTFVFNAMGWYRQAPGKERELVAAISRSGGSTYYADSVKGRFTISRDNAKNTVYLQMNSLKPEDTAVYYCAADKYYLFALYEYGYWGQGTQVTVSS | high polyreactivity
42 | QVQLVESGGGLVQAGGSLRLSCAASGRTFVFNGMGWYRPAPGKERELVAAINWDGGDTYYADSVKGRFTISRDNAKNTVYLQMNSLKPEDTAVYYCAAEGIFRYYTQATMEYWGQGTQVTVSS | low polyreactivity
43 | QVQLVESGGGLVQAGGSLRLSCAASGRTFVGYAMGGYRQAPGQERELVANMTTSGGNTYYADSVKGRFTISRDNAKNTDYLQMNSLKPEDTAVYYCAARVYWVTRAVSTSYYYWGQGTQGTVSS | high polyreactivity
